One block for each molecule: values may come before it. Where no end group is shown, it is not given here. [ ]: non-standard residue; d: D form.
How the values were obtained:
[1] = biological target: tuftsin receptor (human); experiment: radioligand saturation binding, fresh and formalin-fixed HL-60 cells, filtration
[2] = biological target: tuftsin receptor (human); experiment: radioligand saturation binding, fresh and formalin-fixed human PMN leukocytes, filtration
[3] = biological target: GP IIb/IIIa platelet receptor (integrin heterodimeric glycoprotein IIb/IIIa) (human) (UniProt P08514); experiment: radioligand saturation binding to fresh human blood clots
[4] = biological target: GP IIb/IIIa platelet receptor (integrin heterodimeric glycoprotein IIb/IIIa) (human) (UniProt P08514); experiment: competition with trace 99mTc-labeled peptide on activated formalin-fixed human platelets
[5] = biological target: tuftsin receptor (human); experiment: competition with 99mTc-labeled peptide on HL-60 cells
[6] = biological target: tuftsin receptor (human); experiment: competition with trace 99mTc-labeled peptide on formalin-fixed human PMN leukocytes
[7] = biological target: GP IIb/IIIa platelet receptor (integrin heterodimeric glycoprotein IIb/IIIa) (human) (UniProt P08514); experiment: radioligand saturation binding to human blood clots, carrier-free preparation
[8] = biological target: GP IIb/IIIa platelet receptor (integrin heterodimeric glycoprotein IIb/IIIa) (human) (UniProt P08514); experiment: radioligand saturation binding, ADP-activated formalin-fixed human platelets, filtration
[9] = biological target: GP IIb/IIIa platelet receptor (integrin heterodimeric glycoprotein IIb/IIIa) (human) (UniProt P08514); experiment: radioligand saturation binding, ADP-activated human platelets in platelet rich plasma, filtration
[10] = biological target: tuftsin receptor (human); experiment: cell-based or functional assay
[11] = biological target: tuftsin receptor (human); experiment: binding to human leukocytes
[12] = biological target: tuftsin receptor (human); experiment: competition with 99mTc-labeled peptide on HL-60 cells; remark: listed apart in the source

Sequence of UniProt P08514 (P08514 32-1039, chain 1 of 2): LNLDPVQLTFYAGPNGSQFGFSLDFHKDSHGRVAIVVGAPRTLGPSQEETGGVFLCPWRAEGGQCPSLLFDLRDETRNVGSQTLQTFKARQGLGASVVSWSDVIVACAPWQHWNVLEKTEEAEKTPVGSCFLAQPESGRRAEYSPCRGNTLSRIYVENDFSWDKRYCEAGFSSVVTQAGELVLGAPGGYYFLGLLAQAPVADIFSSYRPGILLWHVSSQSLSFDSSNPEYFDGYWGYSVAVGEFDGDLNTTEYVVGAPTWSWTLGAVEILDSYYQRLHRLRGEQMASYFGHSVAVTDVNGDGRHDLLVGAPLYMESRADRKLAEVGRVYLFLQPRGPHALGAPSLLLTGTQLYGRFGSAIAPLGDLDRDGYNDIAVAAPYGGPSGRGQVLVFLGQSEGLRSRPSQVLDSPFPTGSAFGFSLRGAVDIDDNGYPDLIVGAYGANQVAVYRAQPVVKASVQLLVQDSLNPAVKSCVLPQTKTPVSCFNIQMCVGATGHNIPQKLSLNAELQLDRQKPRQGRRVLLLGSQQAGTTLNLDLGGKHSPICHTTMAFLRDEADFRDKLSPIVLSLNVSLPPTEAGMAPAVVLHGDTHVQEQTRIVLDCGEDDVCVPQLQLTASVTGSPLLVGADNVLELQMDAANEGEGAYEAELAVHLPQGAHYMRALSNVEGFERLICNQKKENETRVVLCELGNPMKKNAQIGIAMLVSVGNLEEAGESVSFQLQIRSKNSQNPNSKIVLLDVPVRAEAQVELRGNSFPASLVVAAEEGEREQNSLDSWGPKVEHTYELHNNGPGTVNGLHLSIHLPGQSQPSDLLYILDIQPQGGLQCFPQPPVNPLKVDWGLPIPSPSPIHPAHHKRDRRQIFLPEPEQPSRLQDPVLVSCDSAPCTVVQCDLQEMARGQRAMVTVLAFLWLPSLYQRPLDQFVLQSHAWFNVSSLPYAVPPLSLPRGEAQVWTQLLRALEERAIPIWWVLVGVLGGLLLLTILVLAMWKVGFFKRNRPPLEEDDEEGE
Sequence of UniProt P08514 (P05106 27-788, chain 2 of 2, further chain): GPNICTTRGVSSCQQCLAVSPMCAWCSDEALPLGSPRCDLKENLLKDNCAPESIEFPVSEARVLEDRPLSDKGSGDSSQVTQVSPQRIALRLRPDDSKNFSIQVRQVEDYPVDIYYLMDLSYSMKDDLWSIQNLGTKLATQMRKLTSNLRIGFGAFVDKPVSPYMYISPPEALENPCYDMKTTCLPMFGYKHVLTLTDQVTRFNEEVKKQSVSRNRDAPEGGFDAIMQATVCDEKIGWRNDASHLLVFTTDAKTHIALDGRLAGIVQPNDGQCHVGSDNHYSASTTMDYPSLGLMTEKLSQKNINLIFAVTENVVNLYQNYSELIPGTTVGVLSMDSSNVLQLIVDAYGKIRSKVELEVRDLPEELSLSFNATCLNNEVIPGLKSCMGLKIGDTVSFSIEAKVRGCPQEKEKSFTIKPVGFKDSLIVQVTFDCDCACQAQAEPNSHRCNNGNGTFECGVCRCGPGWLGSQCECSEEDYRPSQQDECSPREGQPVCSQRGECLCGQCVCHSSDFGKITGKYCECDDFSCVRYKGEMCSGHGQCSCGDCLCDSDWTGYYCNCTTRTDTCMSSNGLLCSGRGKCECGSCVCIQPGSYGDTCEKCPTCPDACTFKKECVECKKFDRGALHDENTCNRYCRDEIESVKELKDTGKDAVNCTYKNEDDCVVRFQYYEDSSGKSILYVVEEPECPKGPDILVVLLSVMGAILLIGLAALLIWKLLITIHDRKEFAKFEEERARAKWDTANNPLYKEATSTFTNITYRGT

Molecule: ^99mTc-Thr-[D-Lys-Gly-D-Cys]-Arg (peptide)
Kd [1]: 1 to 5 nM | Kd [2]: 1 to 5 nM

Molecule: ^99mTc-labeled PEG8000-D-Arg-Gly-D-Cys-β-Ala (peptide)
Kd [3]: 5 to 20 nM

Molecule: ^99Tc-[D-Arg-Gly-D-Cys]-β-Ala (peptide)
IC50 [4]: 5 to 10 nM

B3: natural tuftsin Thr-Lys-Pro-Arg (peptide)
peptide: TKPR
nitroblue tetrazolium dye reduction (hexose monophosphate shunt activity) in human PMN granulocytes: concentration of maximal stimulation [10]: 100 nM | IC50 [6]: 100 nM | IC50 [12]: 100 nM

The remaining lines, values ahead:

IC50 [5]: 1 to 5 nM | IC50 [6]: 1 to 5 nM
Molecule: ^99Tc-Thr-[D-Lys-Gly-D-Cys]-Arg (peptide)

Kd [7]: 5 to 10 nM | Kd [8]: 5 to 10 nM | Kd [9]: 5 to 10 nM | Kd [3]: 5 to 10 nM
Molecule: ^99mTc-[D-Arg-Gly-D-Cys]-β-Ala (peptide)

nitroblue tetrazolium dye reduction (hexose monophosphate shunt activity) in human PMN granulocytes: concentration of maximum stimulation [10]: 1 to 5 nM | stimulation of phagocytosis of heat inactivated yeast cells by human PMN granulocytes: concentration of maximal stimulation [10]: 1 nM
B1: Thr-ReO[V]-[D-Lys-Gly-D-Cys]-Arg (peptide)
peptide: T[dK]G[dC]R
modifications: also: ReO[V] complexed to D-Lys-Gly-D-Cys

IC50 [6]: 2000 to 5000 nM | Kd [11]: 100000 nM
B2: Thr-D-Lys-Gly-D-Cys-Arg (unlabeled, not complexed to a metal ion) (peptide)
peptide: T[dK]G[dC]R

Source: patent US20060040324A1
